This is an account of results in paper PMC5889391, “Lipid binding promotes the open conformation and tumor-suppressive activity of neurofibromin 2” (Nature Communications, 2018).

Usually Kd stands for the concentration at which binding is half-saturated.

For assay [1], the target named is neurofibromin 2 tail tail (Homo sapiens) (UniProt P35240). The settings on record: cited from earlier work.
Assay [2] has as its target T1, neurofibromin 2 (full-length, GST-tagged) (Homo sapiens, UniProt P35240, A585W/R588K).
T1 construct: gene NF2; full-length, residues 1-595, N-terminal GST tag kept (pGEX-6P-1), E. coli BL21(DE3) Rosetta2
T1 sequence (P35240 1-595 A585W/R588K): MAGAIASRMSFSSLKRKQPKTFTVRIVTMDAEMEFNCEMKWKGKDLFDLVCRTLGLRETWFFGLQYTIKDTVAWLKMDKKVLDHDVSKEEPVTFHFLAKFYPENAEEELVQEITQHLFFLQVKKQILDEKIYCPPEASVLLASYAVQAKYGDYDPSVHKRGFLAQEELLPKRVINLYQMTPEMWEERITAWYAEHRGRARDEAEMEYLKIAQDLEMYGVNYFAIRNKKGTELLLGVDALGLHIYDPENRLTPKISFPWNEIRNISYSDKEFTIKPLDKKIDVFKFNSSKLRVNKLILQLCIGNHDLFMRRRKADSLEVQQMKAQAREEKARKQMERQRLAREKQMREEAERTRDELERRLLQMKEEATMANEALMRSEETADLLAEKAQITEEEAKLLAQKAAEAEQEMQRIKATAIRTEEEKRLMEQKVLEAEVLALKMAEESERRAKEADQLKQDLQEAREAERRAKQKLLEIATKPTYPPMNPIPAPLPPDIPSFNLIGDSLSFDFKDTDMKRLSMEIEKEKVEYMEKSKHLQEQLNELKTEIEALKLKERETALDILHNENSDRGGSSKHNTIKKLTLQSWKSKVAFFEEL
Kind of assay: microscale thermophoresis. Format: binding. The settings on record: 20 mM Tris pH 7.5, 300 mM NaCl, 0.01% Tween-20, room temperature; protein labelled with maleimide NT-647. Background: Microscale thermophoresis detects binding through changes in fluorescence in a small temperature gradient.

In assay [3] the target is T2, N terminally GST-tagged full-length neurofibromin 2, wild type (human, UniProt P35240 1-595, labeled with NT-647 red dye (maleimide conjugated cysteine reactive or NHS conjugated lysine reactive)).
T2 construct: neurofibromin 2 (merlin), human, full length, residues 1-595; also called NF2; merlin; source: E. coli BL21(DE3) Rosetta2, purified (GST column); not shown: GST, N-terminal, kept
T2 sequence (looked up): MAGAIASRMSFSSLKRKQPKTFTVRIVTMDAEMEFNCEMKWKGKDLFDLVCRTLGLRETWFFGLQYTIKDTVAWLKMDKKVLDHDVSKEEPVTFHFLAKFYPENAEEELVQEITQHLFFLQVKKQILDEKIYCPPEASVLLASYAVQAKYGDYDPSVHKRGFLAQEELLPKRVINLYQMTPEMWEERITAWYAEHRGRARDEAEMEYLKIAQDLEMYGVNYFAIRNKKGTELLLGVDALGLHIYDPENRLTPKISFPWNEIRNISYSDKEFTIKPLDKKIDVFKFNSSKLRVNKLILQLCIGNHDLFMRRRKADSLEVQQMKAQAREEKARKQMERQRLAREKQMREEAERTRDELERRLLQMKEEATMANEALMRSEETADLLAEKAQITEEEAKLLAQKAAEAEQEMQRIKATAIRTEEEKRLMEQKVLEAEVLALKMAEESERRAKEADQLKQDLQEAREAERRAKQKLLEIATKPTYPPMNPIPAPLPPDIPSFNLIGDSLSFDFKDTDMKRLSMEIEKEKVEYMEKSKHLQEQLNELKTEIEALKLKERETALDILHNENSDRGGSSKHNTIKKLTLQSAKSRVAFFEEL
The experiment in a line: MST; as a1, but LATS1 69-100 titrated into the neurofibromin 2/PIP2 complex (in the presence of PIP2). The following applies: both partners purified.

In assay [4] the target is T3, N terminally GST-tagged full-length neurofibromin 2 lipid binding deficient mutant (T59V, W60E, R309Q, R310Q) (human, UniProt P35240 1-595, T59V | W60E | R309Q | R310Q, labeled with NT-647 red dye (maleimide conjugated cysteine reactive or NHS conjugated lysine reactive)).
T3 construct: neurofibromin 2 (merlin), human, full length, residues 1-595, with four point mutations; Cloned into pGEX-6P-1; also called LBD; source: E. coli BL21(DE3) Rosetta2, purified (GST column); not shown: GST, N-terminal, kept
T3 sequence (looked up): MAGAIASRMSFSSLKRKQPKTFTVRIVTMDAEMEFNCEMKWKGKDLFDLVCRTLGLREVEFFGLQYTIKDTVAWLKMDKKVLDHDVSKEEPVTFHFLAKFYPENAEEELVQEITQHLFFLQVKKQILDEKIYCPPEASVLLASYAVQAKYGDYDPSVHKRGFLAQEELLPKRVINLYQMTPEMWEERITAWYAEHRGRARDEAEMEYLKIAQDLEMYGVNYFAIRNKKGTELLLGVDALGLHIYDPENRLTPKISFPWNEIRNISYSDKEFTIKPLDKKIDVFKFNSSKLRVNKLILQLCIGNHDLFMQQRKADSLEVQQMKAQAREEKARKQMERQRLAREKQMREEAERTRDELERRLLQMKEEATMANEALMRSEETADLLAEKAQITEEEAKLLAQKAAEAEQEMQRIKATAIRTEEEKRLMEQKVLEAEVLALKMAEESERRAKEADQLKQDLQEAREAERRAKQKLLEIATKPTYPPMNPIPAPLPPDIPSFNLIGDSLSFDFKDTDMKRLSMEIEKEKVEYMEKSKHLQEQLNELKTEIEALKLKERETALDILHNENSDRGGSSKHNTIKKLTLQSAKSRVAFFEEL
The experiment in a line: MST; unlabeled LATS1 69-100 (2 mM) titrated into 5 uM NT-647-labeled GST-neurofibromin 2; 20 mM Tris pH 7.5, 300 mM NaCl, 0.01% Tween-20; room temperature. The following applies: both partners purified.

Assay [5] deals with T2, N terminally GST-tagged full-length …. Described as above. The settings on record: both partners purified.

For “neurofibromin 2 head head (from UniProt P35240)”, in assay [1], the Kd is 3 µM.

For `CCCCCCCC(=O)OC[C@H](COP(=O)(O)O[C@@H]1[C@H](O)[C@H](O)[C@@H](OP(=O)(O)O)[C@H](OP(=O)(O)O)[C@H]1O)OC(=O)CCCCCCC` [PIP2diC8], the microscale thermophoresis result in assay [2] was “No binding was observed for the artificially closed A585W-R588K (AR) mutants to h PIP2”.

B1: LATS1 (residues 69-100) (domain or fragment, UniProt O95835 69-100, looked up)
chain: PKFGTHHKALQEIRNSLLPFANETNSSRSTSE
notes: Hippo pathway kinase LATS1, residues 69-100; it was unlabeled; also called LATS1 kinase; LAST1 residues 69-100
Take B1: the Kd is 3.77 ± 0.72 µM in assay [3], 176 ± 34.5 µM in assay [4] and 39.3 ± 4.25 µM in assay [5].
